Assay results published in patent publication US5981488.

Molecular target: rat GLP-1 receptor (rat) (UniProt P32301)

Percent receptor affinities (cAMP production by the membrane preparation, fluorescent tracer-immuno assay) [%] | Substance
16.6 | Met-8 GLP-1(7-36)NH2 (peptide)
2.8 | Thr-8 GLP-1(7-37)OH (peptide)
